Experimental data published in the Human Domainome abundance scans (Beltran et al. 2025).

B1: Dystrobrevin alpha, residues 235 to 294; numbered along this chain, Q9Y4J8 (parent)
chain: ENVFHPVECSYCHSESMMGFRYRCQQCHNYQLCQDCFWRGHAGGSHSNQHQMKEYTSWKS
B2: Lysine-specific demethylase 2B, residues 656 to 722; numbered along this chain, Q8NHM5 (parent)
chain: LPHTAVCLVCGEAGKEDTVEEEEGKFNLMLMECSICNEIIHPGCLKIKESEGVVNDELPNCWECPKC

Variants of: B1
Assay: abundance fitness (aPCA) (normalised: wild type 0, dead -1); higher = more abundant; growth selection in yeast, the domain comes from the species named
Details: Homo sapiens

Abundance fitness, by site and new letter:
N2: V -0.129 | H -0.394 | L -0.158 | K -0.007 | P -0.09 | Q 0.019 | W -0.285 | R -0.109 | D -0.599 | A 0.066 | F -0.121 | M 0.092 | E 0.032 | T 0.049 | Y -0.035 | C -0.33
V3: G -0.217 | K 0.213 | C 0.118 | N 0.149 | R 0.011 | E 0.053 | A -0.075 | F -0.248 | Q 0.106 | D 0.011 | M 0.067 | I -0.006 | L 0.096 | P 0.083
E1: D 0.028 | S -0.183 | V -0.211 | K -0.248 | T -0.166 | C 0.297 | G -0.336 | P -0.076 | A -0.257 | Y 0.014 | R -0.462 | M -0.377

Variants of: B2
Assay: as above
Details: Homo sapiens

Abundance fitness of substitutions, site by site:
C64: T -0.952 | V -0.95 | Y -0.804 | Q -0.662 | A -1.05 | L -0.935 | D -0.85 | G -0.889 | R -0.888 | K -0.749 | S -0.797 | F -0.719 | E -0.718 | P -0.684 | I -0.778 | W -0.775 | H 0.218 | M -0.923
V53: F -0.343 | T 0.078 | A 0.047 | S 0.006 | H -0.346 | L -0.119 | R -0.148 | E 0.003 | Q 0.164 | M -0.045 | I -0.07 | G -0.078 | N -0.136 | P -0.15 | C -0.027 | K -0.167
G52: K -0.164 | F -0.028 | N -0.09 | V 0.018 | P 0.171 | T -0.122 | H -0.086 | R 0.067 | I -0.525 | D -0.121 | A 0.224 | C -0.051 | Q -0.094 | S -0.146 | L -0.142 | E -0.016 | W -0.365
V54: K -0.125 | S -0.284 | A 0.089 | P -0.065 | Q 0.135 | C -0.275 | D -0.119 | R 0.042 | W -0.124 | T 0.126 | E 0.024 | I 0.126 | G -0.182
C61: Q -0.08 | D -0.475 | F -0.325 | Y 0.073 | M -0.12 | T 0.248 | W -0.171 | P -0.054 | S 0.018 | E -0.105 | K 0.005 | L -0.04 | G -0.192 | A 0.053 | N -0.675 | R 0.042 | H 0.309 | I -0.349
N60: R -0.044 | W -0.176 | I -0.186 | L -0.3 | Q -0.155 | E -0.211 | M -0.234 | K -0.176 | C -0.368 | G -0.062 | P -0.128 | F 0.153 | H -0.127 | S -0.166 | T -0.091
C67: R -1.26 | E -0.596 | T -0.462 | K -0.667 | P -0.867 | G -0.992 | W -1.43 | L -1.03 | Y -1.08 | A -0.676 | H -0.28
N55: A -0.089 | Q -0.189 | V -0.236 | G -0.022 | D -0.031 | W -0.389 | M -0.203 | K -0.591 | S 0.087 | T -0.101 | R -0.015 | C -0.202 | P -0.227 | Y -0.386 | L -0.188 | H 0.049 | E -0.165
P59: C -0.076 | K 0.076 | G -0.076 | R 0.015 | M -0.183 | V 0.007 | S -0.071 | N 0.214 | T -0.012 | W -0.319 | D -0.424 | A -0.117 | E 0.249 | F -0.261 | Q -0.024
S50: M -0.155 | G 0.169 | P 0.087 | Q -0.111 | D 0.085 | K -0.025 | Y 0.312 | W -0.156 | V 0.039 | F 0.039 | I -0.036 | C 0.078 | E 0.034 | H -0.208 | R -0.128
L58: C 0.066 | S 0.051 | R 0.076 | T 0.206 | H 0.194 | A -0.454 | Q -0.107 | E 0.011 | W -0.149 | V -0.036 | G -0.171 | K 0.14 | P -0.408
E49: L -0.077 | T 0.045 | M -0.005 | R -0.103 | W -0.235 | Q -0.079 | Y -0.187 | S -0.061 | P 0.024 | K -0.123 | N 0.262
K66: M -0.434 | D -0.064 | S -0.284 | L -0.705 | Q -0.551 | R -0.145 | V -0.173 | P -0.049 | T -0.079 | A -0.425 | G -0.263 | E -0.058 | C -0.819 | W -0.846
E63: T 0.102 | Q -0.148 | Y -0.263 | W -0.386 | P -0.968 | G -0.252 | L -0.074 | V 0.039 | N -0.246 | A 0.017 | F -0.407 | S -0.223 | C -0.073 | R -0.031 | M -0.006 | K 0.146
D56: N -0.017 | Q -0.049 | R 0.123 | A 0.001 | I -0.685 | S 0.07 | W -0.401 | V -0.102 | T 0.069 | Y 0.063 | C -0.233 | P 0.099 | F 0.023 | L -0.114 | M 0.123 | E -0.075 | K 0.179 | G 0.079 | H 0.692
W62: N -0.541 | H -0.838 | T -0.426 | C -0.858 | G -0.789 | R -0.574 | M -0.425 | P -0.17 | Q -0.601 | Y -0.296 | E -0.439 | L -0.391 | A -0.509 | F -0.014 | I -1 | S -0.551 | V -0.465 | K -0.339
P65: R -0.364 | D -0.547 | A -0.133 | F -0.401 | W -0.432 | H -0.289 | S -0.177 | T -0.634 | L -0.606 | Q -0.454 | E -0.148 | I -0.899 | C -0.384 | V -0.503
E51: R -0.001 | S -0.131 | H 0.097 | Y -0.172 | P -0.328 | V -0.124 | Q -0.239 | M -0.19 | W -0.14 | A -0.044 | C 0.056 | L -0.385 | G -0.197 | K -0.027 | T 0.072
E57: D 0.103 | C 0.036 | H 0.001 | V -0.168 | W -0.305 | S 0.102 | Y -0.179 | R -0.055 | P -0.296 | F -0.107 | I -0.196 | T -0.007 | M -0.079 | Q -0.118 | L -0.042 | G -0.065 | A 0.053
